Assay results from publication PMC11213201 (2024).

B1: ZFYVE21-FLAG [not stated] / LC3B [human (endogenous in HUVEC)] (parent complex)
chain 1: MSSEVSARRDAKKLVRSPSGLRMVPEHRAFGSPFGLEEPQWVPDKECRRCMQCDAKFDFLTRKHHCRRCGKCFCDRCCSQKVPLRRMCFVDPVRQCAECALVSLKEAEFYDKQLKVLLSGATFLVTFGNSEKPETMTCRLSNNQRYLFLDGDSHYEIEIVHISTVQILTEGFPPGGGNARATGMFLQYTVPGTEGVTQLKLTVVEDVTVGRRQAVAWLVAMHKAAKLLYESRDQ
chain 2: not shown

Variants of: B1
Assay: FLAG co-IP and Western blot (densitometry); transduced HUVECs; read off a plot

Row | Variant | response [Fold Change LC3-II]
1 | chain 1 L60A | ~0.078
2 | chain 1 Y146A | ~0.036
3 | chain 1 F57A | ~0.17
4 | chain 1 L149A | ~0.092
